Among the data in publication doi:10.1101/2022.04.25.489347 are NaCl concentration up to which the complex was stable values, retold here.

In test [1] the target is AtFKBP43 (1-136) (Arabidopsis thaliana) (UniProt F4J9Q6). Briefly: pull-down.
The target in test [2] is AtFKBP43 (1-164) (Arabidopsis thaliana) (UniProt F4J9Q6). Briefly: pull-down.
Chain of AtFKBP43 (1-164) (Arabidopsis thaliana) (F4J9Q6 1-164): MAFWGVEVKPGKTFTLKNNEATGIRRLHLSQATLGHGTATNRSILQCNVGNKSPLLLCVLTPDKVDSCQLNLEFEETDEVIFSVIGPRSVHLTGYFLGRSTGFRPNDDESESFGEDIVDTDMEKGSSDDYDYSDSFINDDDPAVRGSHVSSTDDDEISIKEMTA

Chain of AtFKBP43 (1-136) (Arabidopsis thaliana) (F4J9Q6 1-136): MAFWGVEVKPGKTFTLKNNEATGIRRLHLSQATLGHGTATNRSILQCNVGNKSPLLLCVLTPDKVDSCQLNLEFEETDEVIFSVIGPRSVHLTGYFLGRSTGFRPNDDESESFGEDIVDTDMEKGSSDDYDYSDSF

In the case of “H2A/H2B dimer (from UniProt P06897 1-130; P02281 1-126) (complex)”, the NaCl concentration up to which the complex was stable in test [1] and in test [2] was 0.3 M in each case.

Consider “H3/H4 tetramer (from UniProt P84233 1-136; P62799 1-103) (complex)”, for which the NaCl concentration up to which the complex was stable in test [1] and in test [2] was 1 M throughout.
